# According to paper PMC12709181:
# What was measured:
# [1] = target: proliferating cell nuclear antigen (PCNA) (yeast) (UniProt P15873)
# [2] = target: proliferating cell nuclear antigen (PCNA) (yeast) (UniProt P15873); remark: listed apart in the source
# proliferating cell nuclear antigen (PCNA) (yeast), sequence (P15873 whole entry): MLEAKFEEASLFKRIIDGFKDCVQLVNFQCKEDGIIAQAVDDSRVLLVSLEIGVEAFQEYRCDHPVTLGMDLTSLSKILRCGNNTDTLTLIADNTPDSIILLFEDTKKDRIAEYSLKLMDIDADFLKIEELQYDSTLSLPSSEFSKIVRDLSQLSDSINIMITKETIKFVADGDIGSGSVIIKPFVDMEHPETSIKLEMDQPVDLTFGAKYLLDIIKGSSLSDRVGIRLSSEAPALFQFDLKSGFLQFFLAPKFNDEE
holoenzyme assay: product length of DNA synthesis on single-primed M13mp18 ssDNA with PCNA loaded by RFC (10 and 20 min); much less stimulation by PCNA [1],"processivity assay under single-hit conditions: product length on primed M13mp18 ssDNA upon addition of PCNA (0, 5, 10, 20 min) [2]","holoenzyme assay: product length of DNA synthesis on single-primed M13mp18 ssDNA with PCNA loaded by RFC (10 and 20 min); stimulated by PCNA, although to a lesser extent than wild-type Pol ε [1]","processivity assay under single-hit conditions: product length on primed M13mp18 ssDNA upon addition of PCNA (0, 5, 10, 20 min); increase comparable to wild type [2]",Substance
400 bp,85 nts,–,–,four-subunit yeast Pol ε with the P-domain mutation KKRL736-739AAAA in Pol2 (P3) (from UniProt P21951 1-2222; P24482 1-689; P27344 1-201; Q04603 1-196) (complex)
–,–,3000 bp,300 nts,"four-subunit yeast Pol ε with the P-domain mutations D695A, E696A, N698A, K745A in Pol2 (DENK) (from UniProt P21951 1-2222; P24482 1-689; P27344 1-201; Q04603 1-196) (complex)"
–,300 nts,–,–,"wild-type four-subunit yeast DNA polymerase ε (Pol2, Dpb2, Dpb3, Dpb4) (from UniProt P21951 1-2222; P24482 1-689; P27344 1-201; Q04603 1-196) (complex)"
